Laboratory results: FireProtDB (doi:10.1021/bi00093a001)

B1: Subtilisin-chymotrypsin inhibitor-2A, P01053 (parent)
chain: MSSVEKKPEGVNTGAGDRHNLKTEWPELVGKSVEEAKKVILQDKPEAQIIVLPVGTIVTMEYRIDRVRLFVDKLDNIAQVPRVG

Variants of: B1
Conditions: Hordeum vulgare, MES 450 mM, reversible: yes, structure 2CI2, whole UniProt chain shown; for ddG of mutation (higher = less stable) / heat capacity change of unfolding / denaturant m value / denaturant midpoint (higher = more stable) / unfolding free energy: 25 °C

Variant | ddG of mutation (higher = less stable) (pH 3, Thermal, DSC) | heat capacity change of unfolding (pH 3, Thermal, DSC) | Tm (pH 3, Thermal, DSC) | change of melting temperature, mutant - wild type (higher = more stable) (pH 3, Thermal, DSC) | unfolding enthalpy (calorimetric) (pH 3, Thermal, DSC) | unfolding enthalpy (van 't Hoff) (pH 3, Thermal, DSC) | ddG of mutation (higher = less stable) (pH 6.3, GdnHCl, Fluorescence) | denaturant m value (pH 6.3, GdnHCl, Fluorescence) | denaturant midpoint (higher = more stable) (pH 6.3, GdnHCl, Fluorescence) | unfolding free energy (pH 6.3, GdnHCl, Fluorescence) | Tm (pH 3.5, Thermal, DSC) | change of melting temperature, mutant - wild type (higher = more stable) (pH 3.5, Thermal, DSC) | unfolding enthalpy (calorimetric) (pH 3.5, Thermal, DSC) | unfolding enthalpy (van 't Hoff) (pH 3.5, Thermal, DSC) | ddG of mutation (higher = less stable) (pH 3.5, Thermal, DSC) | heat capacity change of unfolding (pH 3.5, Thermal, DSC)
MSSVEKKPEGVNTGAGDRHNLKTEWPELVGKSVEEAKKAILQDKPEAQIIVLPVGTIVTMEYRIDRVRLFVDKLDNIAQVPRVG [V39A] | 0.46 kcal/mol | 0.72 kcal/mol/K | 61.1 °C | -2.9 °C | 58.5 kcal/mol | 58.6 kcal/mol | 0 kcal/mol | 2.01 kcal/mol/M | 3.75 M | 7.54 kcal/mol | – | – | – | – | – | –
MSSVEKKPEGVNTGAGDRHNLKTEWPELVGKSVEEAKKVVLQDKPEAQIIVLPVGTIVTMEYRIDRVRLFVDKLDNIAQVPRVG [I40V] | 1.2 kcal/mol | 0.72 kcal/mol/K | 57.7 °C | -6.3 °C | 53.7 kcal/mol | 54.8 kcal/mol | 0.91 kcal/mol | 1.99 kcal/mol/M | 3.33 M | 6.63 kcal/mol | 67.3 °C | -6.5 °C | 61.5 kcal/mol | 62.5 kcal/mol | – | –
MSSVEKKPEGVNTGAGDRHNLKTEWPELVGKSVEEAKKVILQDKPEAQIIVLPVGTIVTMEYRIDRVRLFADKLDNIAQVPRVG [V71A] | 2.17 kcal/mol | 0.72 kcal/mol/K | 51.3 °C | -12.7 °C | 48.5 kcal/mol | 49.7 kcal/mol | 1.13 kcal/mol | 2.15 kcal/mol/M | 2.98 M | 6.41 kcal/mol | – | – | – | – | – | –
MSSVEKKPEGVNTGAGDRHNLKTEWPELVGKSVEEAKKVILQDKPEAQIIVLPVGTIVTMEYRIDRVRLFVDKLDNAAQVPRVG [I77A] | 4.23 kcal/mol | 0.72 kcal/mol/K | 38.3 °C | -25.7 °C | 30.2 kcal/mol | 37.2 kcal/mol | 4.09 kcal/mol | 1.93 kcal/mol/M | 1.79 M | 3.45 kcal/mol | 50.3 °C | -23.5 °C | 41 kcal/mol | 46.8 kcal/mol | 4.34 kcal/mol | 0.72 kcal/mol/K
MSSVEKKPEGVNTGAGDRHNLKTEWPELVGKSVEEAKKVILQDKPEAQIIVLPVGTIVTMEYRIDRVRLFVDKLDNVAQVPRVG [I77V] | -0.09 kcal/mol | 0.72 kcal/mol/K | 65.4 °C | 1.4 °C | 60.5 kcal/mol | 60.5 kcal/mol | – | – | – | – | – | – | – | – | – | –
MSSVEKKPEGVNTGAGDRHNLKTEWPEAVGKSVEEAKKVILQDKPEAQIIVLPVGTIVTMEYRIDRVRLFVDKLDNIAQVPRVG [L28A] | – | – | 48.5 °C | -15.5 °C | 45 kcal/mol | 44.4 kcal/mol | 1.91 kcal/mol | 2.15 kcal/mol/M | 2.62 M | 5.63 kcal/mol | – | – | – | – | – | –
MSSVEKKPEGVNTGAGDRHNLKTEWPELVGKSVEEAKKVILQDKPEAQAIVLPVGTIVTMEYRIDRVRLFVDKLDNIAQVPRVG [I49A] | – | – | – | – | – | – | 3.4 kcal/mol | 2.07 kcal/mol/M | 2 M | 4.14 kcal/mol | 52.5 °C | -21.3 °C | 44.9 kcal/mol | 46.9 kcal/mol | 3.89 kcal/mol | 0.72 kcal/mol/K
MSSVEKKPEGVNTGAGDRHNLKTEWPELVGKSVEEAKKVILQDKPEAQAIVLPVGTIVTMEYRIDRVRLFVDKLDNVAQVPRVG [I49A I77V] | – | – | – | – | – | – | 4.08 kcal/mol | 1.83 kcal/mol/M | 1.9 M | 3.46 kcal/mol | – | – | – | – | 4.69 kcal/mol | 0.72 kcal/mol/K
MSSVEKKPEGVNTGAGDRHNLKTEWPELVGKSVEEAKKVILQDKPEAQVIVLPVGTIVTMEYRIDRVRLFVDKLDNIAQVPRVG [I49V] | – | – | – | – | – | – | 0.75 kcal/mol | 1.99 kcal/mol/M | 3.43 M | 6.8 kcal/mol | 69.1 °C | -4.7 °C | 62.4 kcal/mol | 61.6 kcal/mol | 0.92 kcal/mol | 0.72 kcal/mol/K
MSSVEKKPEGVNTGAGDRHNLKTEWPELVGKSVEEAKKVILQDKPEAQIIVLPVGTIVTMEYRIDRVRAFVDKLDNIAQVPRVG [L69A] | – | – | – | – | – | – | 3.56 kcal/mol | 1.98 kcal/mol/M | 2.01 M | 3.98 kcal/mol | 52.3 °C | -21.5 °C | 46.7 kcal/mol | 46.9 kcal/mol | 3.74 kcal/mol | 0.72 kcal/mol/K
MSSVEKKPEGVNTGAGDRHNLKTEWPELVGKSVEEAKKVILQDKPEAQIIVLPVGTIVTMEYRIDRARLFVDKLDNIAQVPRVG [V67A] | – | – | – | – | – | – | 4.97 kcal/mol | 1.76 kcal/mol/M | 1.46 M | 2.57 kcal/mol | 45.3 °C | -28.5 °C | 37.3 kcal/mol | 35.8 kcal/mol | – | –
